Results: PMC4276739 (2015)

T1: ALK3 (BMPRIa) ECD (Homo sapiens, UniProt P36894)
T1 chain: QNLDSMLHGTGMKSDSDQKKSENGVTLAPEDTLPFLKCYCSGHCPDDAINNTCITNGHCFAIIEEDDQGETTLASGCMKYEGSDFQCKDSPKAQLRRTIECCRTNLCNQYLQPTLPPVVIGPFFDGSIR


Key:
[1] = biological target: ActRII ECD (Homo sapiens) (UniProt P27037); conditions: cited from earlier work
ALK3 (BMPRIa) ECD = biological target: T1, ALK3 (BMPRIa) ECD; assay: SPR

Sequence of Activin A (P08476 311-426): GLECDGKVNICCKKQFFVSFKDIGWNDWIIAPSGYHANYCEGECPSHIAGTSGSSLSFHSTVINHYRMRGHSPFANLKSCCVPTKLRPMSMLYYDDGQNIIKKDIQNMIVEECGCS
Sequence of ActRII ECD (Homo sapiens) (P27037 20-135): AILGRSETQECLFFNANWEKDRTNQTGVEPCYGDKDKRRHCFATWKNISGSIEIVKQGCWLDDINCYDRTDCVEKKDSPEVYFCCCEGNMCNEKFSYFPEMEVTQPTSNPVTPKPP

Row | Kd (ALK3 (BMPRIa) ECD) [nM] | Molecule | Kd [1] [nM]
1 |  | Activin A (from UniProt P08476) | 0.2
2 | 5 | BMP2 (protein) QAKHKQRKRLKSSCKRHPLYVDFSDVGWNDWIVAPPGYHAFYCHGECPFPLADHLNSTNHAIVQTLVNSVNSKIPKACCVPTELSAISMLYLDENEKVVLKNYQDMVVEGCGCR | 
